Variants at the floor of the assay were thinned out.
Tests used:
biotinyl-Trp-oxazolone = test: self-aminoacylation, catalytic enhancement (BWO) (fold over background); higher = more active; k-Seq, kA / k0A0; sequences stand for … in GGGAAUGGAUCCACAUCUACGAAUUC…UUCACUGCAGACUUGACGAAGCUG
In short: (§1)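 Mutagenized RNA pools (0.43 μM; 21-nt variable region) were treated with 2–1250 μM of each biotinyl-aminoacyl-oxazolone. Conditions were 50 μL HEPES/NaCl/KCl/MgCl2/CaCl2 buffer, 5% acetonitrile, pH 6.9–7.0, room temperature, 90 minutes. Catalytic enhancement, the median kA relative to the uncatalyzed rate, was derived from streptavidin capture, qPCR and Illumina sequencing.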

biotinyl-Ile-oxazolone = test: self-aminoacylation, catalytic enhancement (BIO) (fold over background); higher = more active; k-Seq, kA / k0A0; sequences stand for … in GGGAAUGGAUCCACAUCUACGAAUUC…UUCACUGCAGACUUGACGAAGCUG
In short: as §1

biotinyl-Met-oxazolone = test: self-aminoacylation, catalytic enhancement (BMO) (fold over background); higher = more active; k-Seq, kA / k0A0; sequences stand for … in GGGAAUGGAUCCACAUCUACGAAUUC…UUCACUGCAGACUUGACGAAGCUG
In short: as §1

biotinyl-Phe-oxazolone = test: self-aminoacylation, catalytic enhancement (BFO) (fold over background); higher = more active; k-Seq, kA / k0A0; sequences stand for … in GGGAAUGGAUCCACAUCUACGAAUUC…UUCACUGCAGACUUGACGAAGCUG
In short: as §1

biotinyl-Leu-oxazolone = test: self-aminoacylation, catalytic enhancement (BLO) (fold over background); higher = more active; k-Seq, kA / k0A0; sequences stand for … in GGGAAUGGAUCCACAUCUACGAAUUC…UUCACUGCAGACUUGACGAAGCUG
In short: as §1

biotinyl-Val-oxazolone = test: self-aminoacylation, catalytic enhancement (BVO) (fold over background); higher = more active; k-Seq, kA / k0A0; sequences stand for … in GGGAAUGGAUCCACAUCUACGAAUUC…UUCACUGCAGACUUGACGAAGCUG
In short: as §1

Sequence	self-aminoacylation (biotinyl-Trp-oxazolone)	self-aminoacylation (biotinyl-Ile-oxazolone)	self-aminoacylation (biotinyl-Met-oxazolone)	self-aminoacylation (biotinyl-Phe-oxazolone)	self-aminoacylation (biotinyl-Leu-oxazolone)	self-aminoacylation (biotinyl-Val-oxazolone)
AUCAUCCUGGUCAUCGAGUGA [Fam2.1 aminoacylation ribozyme variant]	10.5	4.91	9.33	36.4	10.1	4.82
AUUACCCUGGUCAUCGUGGGA [Fam2.1 aminoacylation ribozyme variant]	1.98	1.18	1.33	4.91	1.58	1.22
ACUUCCCUGGUCAUCGAGUGA [Fam2.1 aminoacylation ribozyme variant]	12.1	4.96	9.66	41.8	9.49	5.69
AUUACCCUGGUUACCGAGUGA [Fam2.1 aminoacylation ribozyme variant]	12.3	5.43	11.9	78.8	12.6	5.65
AUUCACCUAGGGCAUCGGGUA [Fam2.2 aminoacylation ribozyme variant]	3.3	2.89	3.25	2.02	2.34	3.46
AAGUUUGCUGCUAGUCGCAAG [Fam3.1 aminoacylation ribozyme variant]	1.19	1.21	1.57	2.64	1.3	1.31
CUUACACUGGUCAUCGAGUGA [Fam2.1 aminoacylation ribozyme variant]	4.94	2.65	4.19	10.2	4.41	2.69
AAGAUUGCUAAGAGUCGCAAG [Fam3.1 aminoacylation ribozyme variant]	2.56	1.41	1.41	1.73	1.3	1.29
AUUACCCUAGUCAUCGAGCGA [Fam2.1 aminoacylation ribozyme variant]	1.21	1.3	1.38	0.894	1.2	1.32
CUACUUCAAACAAUCGGUAUC [Fam1A.1 aminoacylation ribozyme variant]	0.994	0.635	0.541	2.2	0.554	0.594
CUACUGCAAACAAUCGGGCUG [Fam1A.1 aminoacylation ribozyme variant]	0.887	1.74	1.69	8.54	1.61	1.98
ACUACCCUGCUCAUCGAGUGA [Fam2.1 aminoacylation ribozyme variant]	1.93	1.37	1.45	2.39	2.44	1.85
UUUCACCUAGGUCCUCGGGUG [Fam2.2 aminoacylation ribozyme variant]	5.68	3.82	4.17	35.6	4.92	4.22
AAGUUUGCUAAUAGUUGCACG [Fam3.1 aminoacylation ribozyme variant]	1.75	1.11	1.31	1.38	1.1	1.14
CCACACUUCAACCUAUCGGUC [Fam1B.1 aminoacylation ribozyme variant]	0.993	1.02	0.87	1.18	0.995	1.34
AUUCACCUAGGUCAUUGUGUG [Fam2.2 aminoacylation ribozyme variant]	0.463	0.871	0.898	0.805	1.03	0.835
GUUGACCUAGGUCAUCGGGUG [Fam2.2 aminoacylation ribozyme variant]	5.59	4.11	3.52	20	5.05	3.67
CCAUACUUCAAGCAAUCGGUG [Fam1B.1 aminoacylation ribozyme variant]	6.14	4.16	5.58	24.4	8.33	4.3
AUACUUCAAACAAUCGUUCUG [Fam1A.1 aminoacylation ribozyme variant]	0.897	0.709	0.81	1.23	0.706	0.745
AUUACCCUGAUCAUCGAGUUA [Fam2.1 aminoacylation ribozyme variant]	0.61	1.02	0.824	0.549	0.958	1.11
CUACUUUAAGCAAUCGGUCUG [Fam1A.1 aminoacylation ribozyme variant]	0.51	0.721	0.749	0.5	0.69	0.685
AUUACCCCGGUCAUCGUGUGA [Fam2.1 aminoacylation ribozyme variant]	2.98	1.55	2.63	16.2	2.57	1.74
AUUCACCUAGGUAUUCGGGUG [Fam2.2 aminoacylation ribozyme variant]	3.35	2.81	3.34	21.8	5.02	2.59
CCACACUUCAAACAAUCAGUC [Fam1B.1 aminoacylation ribozyme variant]	12.4	0.947	0.771	42.2	1.16	1.06
ACGUUUGCUAAUAGUCUCAAG [Fam3.1 aminoacylation ribozyme variant]	2.15	1.11	0.921	3.28	1.02	1.13
CUACUUCGACCAAUCGGUCUG [Fam1A.1 aminoacylation ribozyme variant]	0.379	0.854	0.856	0.674	0.979	0.908

Sequence	self-aminoacylation (biotinyl-Trp-oxazolone)	self-aminoacylation (biotinyl-Ile-oxazolone)	self-aminoacylation (biotinyl-Met-oxazolone)	self-aminoacylation (biotinyl-Phe-oxazolone)	self-aminoacylation (biotinyl-Leu-oxazolone)	self-aminoacylation (biotinyl-Val-oxazolone)
CUUGUUCAAACAAUCGGUCUG [Fam1A.1 aminoacylation ribozyme variant]	3.07	1.07	0.957	5.84	1.18	0.967
GCACACUUCAAGUAAUCGGUC [Fam1B.1 aminoacylation ribozyme variant]	8.15	1.89	1.88	8.6	1.77	1.7
AAGUUAGCUAAUAGCCGCAAG [Fam3.1 aminoacylation ribozyme variant]	2.02	1.88	0.903	1.96	1.44	1.6
CUUACCCUGGUCAACGAGUGA [Fam2.1 aminoacylation ribozyme variant]	6.73	2.56	5.06	15.8	5.08	3.29
ACUACCCUGGUCAUCGAGUAA [Fam2.1 aminoacylation ribozyme variant]	8	3.33	9.42	20.1	8.99	3.99
CUCCUUCAAGCAAUCGGUCUG [Fam1A.1 aminoacylation ribozyme variant]	10.2	1.09	1.2	14.1	1.58	1.09
CAGUUUGCUAAUAGGCGCAAG [Fam3.1 aminoacylation ribozyme variant]	0.744	1.21	1.14	0.95	1.35	1.27
AUUCACAUAGGUCAUCGGGUA [Fam2.2 aminoacylation ribozyme variant]	3.56	2.24	2.86	22.7	2.54	2.57
CUACACUUAAAGCAAUCGGUC [Fam1B.1 aminoacylation ribozyme variant]	0.459	0.786	0.713	0.694	0.696	0.738
CCACAUUUCAAGCAAUCGGCC [Fam1B.1 aminoacylation ribozyme variant]	4.96	3.63	4.62	3.98	3.19	3.56
AUUACCCAUGUCAUCGAGUGA [Fam2.1 aminoacylation ribozyme variant]	9.9	4.15	7.7	34.3	8.07	4.43
AUUGACCUAGGGCAUCGGGUG [Fam2.2 aminoacylation ribozyme variant]	4.66	3.23	3.13	17	3.63	3.28
AUUACCCUAGUCAUUGAGUGA [Fam2.1 aminoacylation ribozyme variant]	9.31	3.69	6.69	25.9	6.93	3.86
UAGUUAGCUAAUAGUCGCAAG [Fam3.1 aminoacylation ribozyme variant]	1.11	1.72	2.06	2.37	1.8	1.52
AUUUCCCUGAUCAUCGAGUGA [Fam2.1 aminoacylation ribozyme variant]	7.61	3	6.25	18.5	5.98	3.27
CCACCCCUCAAGCAAUCGGUC [Fam1B.1 aminoacylation ribozyme variant]	1.14	1.18	1.05	1.64	1.28	1.27
CCACACUUUAAGCAACCGGUC [Fam1B.1 aminoacylation ribozyme variant]	0.72	0.795	0.613	0.959	0.844	0.884
UCACACUUCCAGCAAUCGGUC [Fam1B.1 aminoacylation ribozyme variant]	0.854	1.19	1.14	1.01	1.02	1.24
AUACACCUAGGUCAUCGGGGG [Fam2.2 aminoacylation ribozyme variant]	1.22	1.85	1.29	4.96	1.39	1.73
CCACACUUCAAUCAGUCGGUC [Fam1B.1 aminoacylation ribozyme variant]	0.687	0.963	0.815	0.869	0.723	0.796
AAGUUUGCUAUUAGUCGUAAG [Fam3.1 aminoacylation ribozyme variant]	1.13	0.868	0.884	0.987	0.851	0.923
AAGUUCGCUAAUUGUCGCAAG [Fam3.1 aminoacylation ribozyme variant]	1.51	1.68	1.3	3.26	2.06	1.7
CUUACCCUGGUCAUGGAGUGA [Fam2.1 aminoacylation ribozyme variant]	4.01	2.16	3.59	10.1	3.74	2.21
CUACUUCAAACAAUCUGUCUU [Fam1A.1 aminoacylation ribozyme variant]	0.495	0.872	0.559	0.839	0.576	0.74
CCACACCUCAAGCAAUCGGUU [Fam1B.1 aminoacylation ribozyme variant]	1.57	1.43	1.14	0.882	1.98	2.1
